The results in this text go back to US20100285131A1 (Amgen, published 2010).

B1: FGF21 truncation mutant 1-177 (ligand)
chain: HPIPDSSPLLQFGGQVRQRYLYTDDAQQTEAHLEIREDGTVGGAADQSPESLLQLKALKPGVIQILGVKTSRFLCQRPDGALYGSLHFDPEACSFRELLLEDGYNVYQSEAHGLPLHLPGNKSPHRDPAPRGPARFLPLPGLPPAPPEPPGILAPQPPDVGSSDPLSMVGPSQGRSP
B2: FGF21 truncation mutant 1-171 (ligand)
chain: HPIPDSSPLLQFGGQVRQRYLYTDDAQQTEAHLEIREDGTVGGAADQSPESLLQLKALKPGVIQILGVKTSRFLCQRPDGALYGSLHFDPEACSFRELLLEDGYNVYQSEAHGLPLHLPGNKSPHRDPAPRGPARFLPLPGLPPAPPEPPGILAPQPPDVGSSDPLSMVGP
B3: FGF21 truncation mutant 3-181 (ligand)
chain: IPDSSPLLQFGGQVRQRYLYTDDAQQTEAHLEIREDGTVGGAADQSPESLLQLKALKPGVIQILGVKTSRFLCQRPDGALYGSLHFDPEACSFRELLLEDGYNVYQSEAHGLPLHLPGNKSPHRDPAPRGPARFLPLPGLPPAPPEPPGILAPQPPDVGSSDPLSMVGPSQGRSPSYAS
B4: FGF21 truncation mutant 1-174 (ligand)
chain: HPIPDSSPLLQFGGQVRQRYLYTDDAQQTEAHLEIREDGTVGGAADQSPESLLQLKALKPGVIQILGVKTSRFLCQRPDGALYGSLHFDPEACSFRELLLEDGYNVYQSEAHGLPLHLPGNKSPHRDPAPRGPARFLPLPGLPPAPPEPPGILAPQPPDVGSSDPLSMVGPSQG
B5: FGF21 truncation mutant 1-172 (ligand)
chain: HPIPDSSPLLQFGGQVRQRYLYTDDAQQTEAHLEIREDGTVGGAADQSPESLLQLKALKPGVIQILGVKTSRFLCQRPDGALYGSLHFDPEACSFRELLLEDGYNVYQSEAHGLPLHLPGNKSPHRDPAPRGPARFLPLPGLPPAPPEPPGILAPQPPDVGSSDPLSMVGPS
B6: FGF21 truncation mutant 1-169 (ligand)
chain: HPIPDSSPLLQFGGQVRQRYLYTDDAQQTEAHLEIREDGTVGGAADQSPESLLQLKALKPGVIQILGVKTSRFLCQRPDGALYGSLHFDPEACSFRELLLEDGYNVYQSEAHGLPLHLPGNKSPHRDPAPRGPARFLPLPGLPPAPPEPPGILAPQPPDVGSSDPLSMV
B7: FGF21 truncation mutant 1-176 (ligand)
chain: HPIPDSSPLLQFGGQVRQRYLYTDDAQQTEAHLEIREDGTVGGAADQSPESLLQLKALKPGVIQILGVKTSRFLCQRPDGALYGSLHFDPEACSFRELLLEDGYNVYQSEAHGLPLHLPGNKSPHRDPAPRGPARFLPLPGLPPAPPEPPGILAPQPPDVGSSDPLSMVGPSQGRS
B8: FGF21 truncation mutant 1-178 (ligand)
chain: HPIPDSSPLLQFGGQVRQRYLYTDDAQQTEAHLEIREDGTVGGAADQSPESLLQLKALKPGVIQILGVKTSRFLCQRPDGALYGSLHFDPEACSFRELLLEDGYNVYQSEAHGLPLHLPGNKSPHRDPAPRGPARFLPLPGLPPAPPEPPGILAPQPPDVGSSDPLSMVGPSQGRSPS
B9: FGF21 truncation mutant 7-181 (ligand)
chain: SPLLQFGGQVRQRYLYTDDAQQTEAHLEIREDGTVGGAADQSPESLLQLKALKPGVIQILGVKTSRFLCQRPDGALYGSLHFDPEACSFRELLLEDGYNVYQSEAHGLPLHLPGNKSPHRDPAPRGPARFLPLPGLPPAPPEPPGILAPQPPDVGSSDPLSMVGPSQGRSPSYAS
B10: FGF21 truncation mutant 1-166 (ligand)
chain: HPIPDSSPLLQFGGQVRQRYLYTDDAQQTEAHLEIREDGTVGGAADQSPESLLQLKALKPGVIQILGVKTSRFLCQRPDGALYGSLHFDPEACSFRELLLEDGYNVYQSEAHGLPLHLPGNKSPHRDPAPRGPARFLPLPGLPPAPPEPPGILAPQPPDVGSSDPL
B11: FGF21 truncation mutant 4-181 (ligand)
chain: PDSSPLLQFGGQVRQRYLYTDDAQQTEAHLEIREDGTVGGAADQSPESLLQLKALKPGVIQILGVKTSRFLCQRPDGALYGSLHFDPEACSFRELLLEDGYNVYQSEAHGLPLHLPGNKSPHRDPAPRGPARFLPLPGLPPAPPEPPGILAPQPPDVGSSDPLSMVGPSQGRSPSYAS
B12: FGF21 truncation mutant 8-181 (ligand)
chain: PLLQFGGQVRQRYLYTDDAQQTEAHLEIREDGTVGGAADQSPESLLQLKALKPGVIQILGVKTSRFLCQRPDGALYGSLHFDPEACSFRELLLEDGYNVYQSEAHGLPLHLPGNKSPHRDPAPRGPARFLPLPGLPPAPPEPPGILAPQPPDVGSSDPLSMVGPSQGRSPSYAS
B13: FGF21 truncation mutant 1-167 (ligand)
chain: HPIPDSSPLLQFGGQVRQRYLYTDDAQQTEAHLEIREDGTVGGAADQSPESLLQLKALKPGVIQILGVKTSRFLCQRPDGALYGSLHFDPEACSFRELLLEDGYNVYQSEAHGLPLHLPGNKSPHRDPAPRGPARFLPLPGLPPAPPEPPGILAPQPPDVGSSDPLS
B14: FGF21 truncation mutant 9-181 (ligand)
chain: LLQFGGQVRQRYLYTDDAQQTEAHLEIREDGTVGGAADQSPESLLQLKALKPGVIQILGVKTSRFLCQRPDGALYGSLHFDPEACSFRELLLEDGYNVYQSEAHGLPLHLPGNKSPHRDPAPRGPARFLPLPGLPPAPPEPPGILAPQPPDVGSSDPLSMVGPSQGRSPSYAS
B15: FGF21 truncation mutant 2-181 (ligand)
chain: PIPDSSPLLQFGGQVRQRYLYTDDAQQTEAHLEIREDGTVGGAADQSPESLLQLKALKPGVIQILGVKTSRFLCQRPDGALYGSLHFDPEACSFRELLLEDGYNVYQSEAHGLPLHLPGNKSPHRDPAPRGPARFLPLPGLPPAPPEPPGILAPQPPDVGSSDPLSMVGPSQGRSPSYAS
B16: FGF21 truncation mutant 5-181 (ligand)
chain: DSSPLLQFGGQVRQRYLYTDDAQQTEAHLEIREDGTVGGAADQSPESLLQLKALKPGVIQILGVKTSRFLCQRPDGALYGSLHFDPEACSFRELLLEDGYNVYQSEAHGLPLHLPGNKSPHRDPAPRGPARFLPLPGLPPAPPEPPGILAPQPPDVGSSDPLSMVGPSQGRSPSYAS
B17: FGF21 truncation mutant 1-165 (ligand)
chain: HPIPDSSPLLQFGGQVRQRYLYTDDAQQTEAHLEIREDGTVGGAADQSPESLLQLKALKPGVIQILGVKTSRFLCQRPDGALYGSLHFDPEACSFRELLLEDGYNVYQSEAHGLPLHLPGNKSPHRDPAPRGPARFLPLPGLPPAPPEPPGILAPQPPDVGSSDP
B18: FGF21 truncation mutant 1-173 (ligand)
chain: HPIPDSSPLLQFGGQVRQRYLYTDDAQQTEAHLEIREDGTVGGAADQSPESLLQLKALKPGVIQILGVKTSRFLCQRPDGALYGSLHFDPEACSFRELLLEDGYNVYQSEAHGLPLHLPGNKSPHRDPAPRGPARFLPLPGLPPAPPEPPGILAPQPPDVGSSDPLSMVGPSQ
B19: FGF21 truncation mutant 1-180 (ligand)
chain: HPIPDSSPLLQFGGQVRQRYLYTDDAQQTEAHLEIREDGTVGGAADQSPESLLQLKALKPGVIQILGVKTSRFLCQRPDGALYGSLHFDPEACSFRELLLEDGYNVYQSEAHGLPLHLPGNKSPHRDPAPRGPARFLPLPGLPPAPPEPPGILAPQPPDVGSSDPLSMVGPSQGRSPSYA
B20: human FGF21 (ligand)
chain: HPIPDSSPLLQFGGQVRQRYLYTDDAQQTEAHLEIREDGTVGGAADQSPESLLQLKALKPGVIQILGVKTSRFLCQRPDGALYGSLHFDPEACSFRELLLEDGYNVYQSEAHGLPLHLPGNKSPHRDPAPRGPARFLPLPGLPPAPPEPPGILAPQPPDVGSSDPLSMVGPSQGRSPSYAS

One assay deals with T1, β-Klotho overexpressed in recombinant human 293T kidney cells. The experiment in a line: cell-based or functional assay.
On to B1, for which the “Efficacy (ELK-luciferase, relative to wild-type FGF21)” value amounted to 112%.

For B2, the “Efficacy (ELK-luciferase, relative to wild-type FGF21)” value came out at 113%.

As for B3, the “Efficacy (ELK-luciferase, relative to wild-type FGF21)” value was 130%.

As to B4, the “Efficacy (ELK-luciferase, relative to wild-type FGF21)” value worked out at 105%.

Consider B5, for which the “Efficacy (ELK-luciferase, relative to wild-type FGF21)” value was 97.5%.

Consider B6, for which the “Efficacy (ELK-luciferase, relative to wild-type FGF21)” value came to 84.9%.

For the molecule B7, the “Efficacy (ELK-luciferase, relative to wild-type FGF21)” value came to 105%.

On to B8, for which the “Efficacy (ELK-luciferase, relative to wild-type FGF21)” value was determined as 95%.

With B9, the “Efficacy (ELK-luciferase, relative to wild-type FGF21)” value is 74.2%.

Take B10: the “Efficacy (ELK-luciferase, relative to wild-type FGF21)” value amounted to 20%.

For B11, the “Efficacy (ELK-luciferase, relative to wild-type FGF21)” value worked out at 117%.

Turning to B12, the “Efficacy (ELK-luciferase, relative to wild-type FGF21)” value turned out to be 24.9%.

In the case of B13, the “Efficacy (ELK-luciferase, relative to wild-type FGF21)” value worked out at 20%.

As to B14, the “Efficacy (ELK-luciferase, relative to wild-type FGF21)” value amounted to 12.5%.

For the molecule B15, the “Efficacy (ELK-luciferase, relative to wild-type FGF21)” value was found to be 112%.

B16: the “Efficacy (ELK-luciferase, relative to wild-type FGF21)” value turned out to be 120%.

In the case of B17, the “Efficacy (ELK-luciferase, relative to wild-type FGF21)” value is 10%.

Consider B18, for which the “Efficacy (ELK-luciferase, relative to wild-type FGF21)” value stood at 96.1%.

On to B19, for which the “Efficacy (ELK-luciferase, relative to wild-type FGF21)” value was 93.2%.

For another assay, the target named is T1, β-Klotho overexpressed in recombinant …. The assay is described as follows: cell-based or functional assay. This is another data set of the same source.
Turning to B20, the “EC50 (nM), ELK-luciferase” value was 0.4 nM and the “Efficacy, ELK-luciferase” value came to 100%.
